# Assays:
# [1] = Body weight change during comparative therapy experiment (Example 4); type: in vivo, mice; conditions: 250 nmol/kg i.v. on days 8, 10, 12, n=5
# Protocol: (§1) HT1080.hPSMA tumor cells were grown to 90% confluence and detached with Trypsin-EDTA 0.05%. Cells were resuspended in Hank's Balanced Salt Solution (HBSS) at a 5×10^7 cells/mL density. 100 μL of HT1080.hPSMA cells (5×10^6 cells) were injected subcutaneously in the right flank of female athymic Balb/c AnNRj-Foxn1 mice (6 to 8 weeks of age). Tumors were grown until volumes of […].
# (§2) Tumor-bearing mice were randomized into groups of 5 and 0.1 mL of 50 μM solutions (2% DMSO, PBS, 250 nmol/kg) of the four conjugates (1 to 4), or saline solution (0.9% NaCl) was injected intravenously three times with 1-day break in between (days 8, 10, and 12 after tumor implantation).
# HT1080.hPSMA xenografts = test: Comparative therapy experiment in mice bearing HT1080.hPSMA xenografts (tumor volume); type: in vivo; conditions: 250 nmol/kg i.v. on days 8, 10, 12 after tumor implantation, n=5
# Protocol: as §1, §2
# LNCaP tumor (PSMA+) = test: MMAE release from conjugates in LNCaP tumor model (biodistribution by LC-MS); type: in vivo, mice
# Protocol: LNCaP tumor cells were grown to 80% confluence and detached with Trypsin-EDTA 0.05%. Cells were resuspended in PBS at a density of 30×10^6 cells/mL. The cell suspension was further diluted 1:1 with Matrigel. 200 μL of LNCaP cells (3×10^6 cells) were injected subcutaneously in the left flank of female athymic Balb/c AnNRj-Foxn1 mice (6 to 8 weeks of age). Tumors were grown until volumes of 200-300 mm^3 were observed.
# 0.1 ml of 50 μM solutions (2% DMSO, PBS) of the four Conjugates (1-4) were injected intravenously into 4 of the mice (1 mouse per SMDC). The animals were sacrificed after 24 h and the following organs were extracted: blood, LNCaP tumor (PSMA+), heart, lungs, liver, kidney, spleen, stomach. The blood fraction was centrifuged, and the plasma (supernatant) was extracted. The organs were preserved at −80° C. before being used for further analysis.
# Frozen plasma or mouse tissues (˜50 mg) were thawed and treated with 600 μL of an aqueous solution containing 95% acetonitrile (ACN), and 0.1% HCOOH were added to induce protein precipitation. 50 μL of a solution of d8-MMAE, 50 nM) was added as internal standard. Samples were then homogenized with a tissue lyser for 15 minutes at 30 Hz. After homogenization, samples were centrifuged (21'000 g for 10 minutes). The supernatant was collected and dried at room temperature with a rotary evaporator. Pellets were then resuspended in 1 mL of an aqueous solution containing 3% ACN and 0.1% of TFA and subsequently purified on Oasis HLB SPE columns. Eluates were dried under vacuum at room temperature. […] Peak areas of analytes and internal standards were integrated, and corresponding ratios were calculated. The ratios were then transformed into pmol/g of wet tissue using single-concentration external calibration points and corrected by the total weight of the sample analysed. The percentage of injected dose per gram (% ID/g) was finally calculated by normalizing the value based on the total dose injected into the mouse. […]
structure (smiles),measurement,setting,value
CC[C@H](C)[C@@H]([C@@H](CC(=O)N1CCC[C@H]1[C@H](OC)[C@@H](C)C(=O)N[C@H](C)[C@@H](O)c1ccccc1)OC)N(C)C(=O)[C@@H](NC(=O)[C@H](C(C)C)N(C)C(=O)OCc1ccc(NC(=O)[C@@H]2CCCN2C(=O)CNC(=O)CCCCCN2C(=O)CC(SC[C@H](N)C(=O)NCCCCCC(=O)NC[C@H]3CC[C@H](C(=O)N[C@@H](Cc4ccc5ccccc5c4)C(=O)NCCCC[C@H](NC(=O)N[C@@H](CCC(=O)O)C(=O)O)C(=O)O)CC3)C2=O)cc1)C(C)C (some centres unmarked) [Conjugate 1],Toxicity (body weight change %),[1],lowest toxicity
same,Complete remissions,HT1080.hPSMA xenografts,1/5
same,Therapeutic efficacy (tumor volume change),HT1080.hPSMA xenografts,significant shrinkage of the tumors of all 5 mice
same,"MMAE release, experiment repeated with three mice each","LNCaP tumor (PSMA+); 24 h after intravenous injection, LNCaP tumor model, n=3",confirmed
same,MMAE release (quantitative biodistribution),"LNCaP tumor (PSMA+); 24 hours after intravenous injection, 0.1 ml of 50 μM, 1 mouse per SMDC, LNCaP tumor and organs",Significant release of MMAE

# Source: patent publication US12576154B2, “Conjugates of PSMA-binding moieties with cytotoxic agents” (PHILOCHEM AG, priority 2022, dated 2026)
